Data: US5985273A, “Biological control of insects” (priority 1994, dated 1999)

Key:
[1] = system: Southern corn rootworm (SCR) neonatal larvae; conditions: 20 mg/ml of diet; laboratory assay; cited from earlier work
[2] = system: European corn borer (ECB) neonatal larvae; conditions: 20 mg/ml of diet; laboratory assay; cited from earlier work
[3] = system: Tribolium castaneum; test: Growth and survival of Tribolium castaneum in treated flour; format: in vivo; conditions: Day 6; all dose levels
Protocol: Insects were cultured in cleaned, ground and sieved wholemeal flour made from organic wheat. Inhibitors from bottles of pre-weighed material were dry-mixed with the flour and residual inhibitor rinsed from bottles with a small volume of water. Rinse water was added to the flour and the mixture re-ground. The impregnated flour was transferred to a 20 mL vial and mixed thoroughly by shaking and inverting. Adults of T. castaneum were allowed to oviposit on flour, eggs were sifted from the flour and transferred one by one with a single hair to microwell tubes containing a small amount of flour. Each level of treatment was performed in triplicated using 32 wells/replicate. Assays were performed in triplicated. Cultures were incubated at 30° C. and 55% R H. After 6 days each replicate of 32 wells was combined, the larvae counted and the numbers compared with numbers in the control (no inhibitor) treatment. Larvae were classified as "small" if appreciably smaller than reference larvae, or abnormal if unusual behaviour or formation were observed (eg. twisting or twisted larvae). Test inhibitors and dose rates were the same as those used in Example 4.

[4] = system: Heliothis punctigens larvae; test: Growth and survival of cotton budworm larvae fed an artificial diet; format: in vivo; conditions: 10 days; for % Alive: control 70.0
Protocol: 1. The Haricot beans were cooked in a microwave for 40 minutes. 2. Agar was added to the hot water and stirred on a hot plate until almost boiling. 3. The haricot beans, agar mix, yeast and wheat germ was blended in an electric mixer for 3 minutes. 4. When the temperature has dropped to 60°C., the acids were added and mixed with the media. […] Inhibitor solutions or an equal volume of water were placed into sterilized glass tubes at designated concentrations. The artificial media was added to each tube (1.5 ml) using a sterile 10 ml syringe. First instar Heliothis punctigens larvae (1 larvae per tube) were added to the glass tubes and the tubes were capped. The tubes were incubated for 10 days at 25° C. The larvae were killed by placing the glass tubes at -70° C. for 24 hours, and then individually weighed. Percentage inhibition was calculated by comparison to control larvae.

[5] = system: Ctenocephalides felis; test: Development of cat flea eggs in dried blood diets; format: in vivo; conditions: Day 16
Protocol: Blood was collected from the jugular vein of a five year old merino sheep that had not been treated with an ectoparasitic agent for 18 months. The blood was collected into a 100 ml plastic bottle containing 0.8 ml of heparin and was maintained at 4° C. Inhibitors were pre-weighed into sterile 5 ml plastic vials and 4.5 ml of blood added. The samples were mixed, placed at -70° C. for 24 hours, then freeze-dried. The freeze-dried samples were sieved through a stainless steel 63 micron sieve, and placed into sterile 5 ml plastic vials (0.15 g/per tube). Four flea eggs were placed into each vial, and a sheet of tissue paper fastened by an elastic band was fitted to the top of each vial. The vials were incubated at 25° C. and 70-80% R H for 6 days. Vermiculite was then added to each vial to provide a supporting medium for the fleas to pupate and the tubes incubated at 25° C. and 70-80% R H, for a further 10 days. Ten control vials and three vials of each treatment were tested.
At the conclusion of the incubation period the vials were placed at -20° C. for 24 hours to kill the fleas. The number of eggs hatched and the life-cycle state was recorded.

[6] = system: Lucilia cuprina larvae; test: Growth and survival of first instar sheep blowfly larvae on culture medium with inhibitor; format: in vivo; conditions: for Effect on larval growth, summary in words: Example 1, Table 1.2; for % Growth Inhibition / Average Larval Weight: Table 2.2; for Average Larval Weight: control 10.26
[7] = system: Teleogryllus commodus; test: Mortality of black field cricket nymphs on treated cabbage leaf disks; format: in vivo; conditions: after 7 days
Protocol: (i) Stock solutions of inhibitors and control solutions were prepared as aqueous solutions or suspensions as outlined in Table 6.1.
(ii) Mortality was assessed by commencing the study with 1st instar nymphs.
(iii) Cabbage leaf disks (5×8 mm diameter disks/treatment) were smeared with 100 μl of inhibitor or control stock solutions and allowed to dry. Disks were placed singly in 40 mm petri dishes, together with a moist cotton wool pas as water supply and a piece of fluted plastic for shelter.
(iv) Ten nymphs were placed on each disc and the dishes incubated at 25° C.
(v) Mortality was assessed daily and any dead individuals removed.

[8] = system: O. surinamensis larvae; test: Weight reduction of Oryzaephylus surinamensis larvae in treated flour; format: in vivo
Protocol: Insects were cultured in cleaned, ground and sieved wholemeal flour made from organic wheat. Inhibitors from bottles of pre-weighed material were dry-mixed with the flour and residual inhibitor rinsed from bottles with a small volume of water. Rinse water was added to the flour and the mixture re-ground. The impregnated flour was transferred to a 20 mL vial and mixed thoroughly by shaking and inverting.
Adults of T. castaneum were allowed to oviposit on flour, eggs were sifted from the flour and transferred one by one with a single hair to microwell tubes containing a small amount of flour. Each level of treatment was performed in triplicated using 32 wells/replicate. Assays were performed in triplicated. Cultures were incubated at 30° C. and 55% R H.
The bioassay for this insect was outlined for T. castaneum, except incubations were conducted at 32.5° C. and 70% R H. After 8 days the insects were sieved from the flour and weighed.

[9] = system: L. cuprina eggs; test: Egg hatch of L. cuprina on liver in vitro; format: in vivo, Lucilia cuprina; conditions: 0.17 mM; 24 hours at 35° C.; control 71
Protocol: L. cuprina eggs were placed on pieces of liver (0.9 g) which were then placed in individual wells of a 24-well tissue culture plate. Phosphate buffered saline (PBS, 0.1 ml) containing inhibitors at set concentrations were added to each well with 30 freshly laid and sterilised eggs of L. cuprina. The culture plate was then maintained in a sterile environment at 35° C. for 24 hours, after which time the percentage hatch was assessed.

[10] = system: Bovicola ovis (Hartley strain); test: Survival of sheep lice on inhibitor treated wool; format: in vivo; conditions: of 10 lice, 24 Hours at 35° C.
[11] = system: Colorado potato beetle larvae; conditions: fed on potato leaves; cited from earlier work

aprotinin
Neonatal larvae killed [1]: 60%
Neonatal larvae killed [2]: 100%

CCCCC[C@H](CC(=O)NO)C(=O)N[C@H](C(=O)N1CCC[C@H]1CO)C(C)C [Actinonin]
Larval size classification [3]: small
% Alive ([4]; 2.5 mM): 33.3%
% Alive ([4]; 5.0 mM): 0.00%
inhibition at 2500 µM ([4]; Heliothis, 240 h, 2.5 mM, read-out: % Growth Inhibition): 97.5%
inhibition at 5000 µM ([4]; Heliothis, 240 h, 5.0 mM, read-out: % Growth Inhibition): 100%
Percentage of Fleas Progressing Through to Pupation ([5]; 1.40 mg in 4.5 ml of blood): 0%
Percentage of Fleas Progressing Through to Pupation ([5]; 2.80 mg in 4.5 ml of blood): 16.8%
Effect on larval growth, summary in words [6]: effective growth inhibitors
inhibition at 2500 µM ([6]; Lucilia cuprina, first instar larvae, 2.5 mM): 83%
inhibition at 10000 µM ([6]; Lucilia cuprina, first instar larvae, 10 mM): 95%
Mortality (class) ([7]; 5 mM): None (none/low, 10-20% mortality)

c1cnc2c(c1)ccc1cccnc12 [1,10-phenanthroline]
Larval size classification [3]: normal
inhibition at 5000 µM ([8]; 192 h, 5 mM, 8 days, relative to untreated larvae, read-out: Percentage Growth Inhibition): 100%
inhibition at 10000 µM ([8]; 192 h, 10 mM, 8 days, relative to untreated larvae, read-out: Percentage Growth Inhibition): 63%
inhibition at 20000 µM ([8]; 192 h, 20 mM, 8 days, relative to untreated larvae, read-out: Percentage Growth Inhibition): 95%
Growth inhibition, summary in words ([8]; text summary of Table 9.1): highly effective
Effect on larval growth, summary in words [6]: effective growth inhibitors
Larval survival ([6]; first instar larvae, tested at 1, 2.5, 5 mM): All larvae died
Mortality (class) ([7]; 5-20 mM): Medium (medium 21-40%)

B1: Soybean Trypsin Inhibitor (protein, UniProt P01070 25-205, looked up)
Trypsin inhibitor A: DFVLDNEGNPLENGGTYYILSDITAFGGIRAAPTGNERCPLTVVQSRNELDKGIGTIISSPYRIRFIAEGHPLSLKFDSFAVIMLCVGIPTEWSVVEDLPEGPAVKIGENKDAMDGWFRLERVSDDEFNNYKLVFCPQQAEDDKCGDIGISIDHDDGTRRLVVSKNKPLVVQFQKLDKESL
% Hatch [9]: 17%
Percentage Growth Inhibition ([8]; 0.17 mM, 8 days, relative to untreated larvae): 12%
Percentage Growth Inhibition ([8]; 0.34 mM, 8 days, relative to untreated larvae): 30%
Percentage Growth Inhibition ([8]; 0.68 mM, 8 days, relative to untreated larvae): 46%
Percentage of Fleas Progressing Through to Pupation ([5]; 5.0 mg in 4.5 ml of blood): 0%
Percentage of Fleas Progressing Through to Pupation ([5]; 10.0 mg in 4.5 ml of blood): 0%
Number of Living Lice ([10]; Adult, 0.17 mM): 4
Number of Living Lice ([10]; Adult, 0.34 mM): 0
Number of Living Lice ([10]; Adult, 0.68 mM): 0
Number of Living Lice ([10]; instar 1, 0.17 mM): 1
Number of Living Lice ([10]; instar 1, 0.34 mM): 1
Number of Living Lice ([10]; instar 1, 0.68 mM): 0
Number of Living Lice ([10]; instar 2, 0.17 mM): 2
Number of Living Lice ([10]; instar 2, 0.34 mM): 0
Number of Living Lice ([10]; instar 2, 0.68 mM): 0
Number of Living Lice ([10]; instar 3, 0.17 mM): 2
Number of Living Lice ([10]; instar 3, 0.34 mM): 4
Number of Living Lice ([10]; instar 3, 0.68 mM): 0
Growth retardation [11]: ineffective
% Growth Inhibition ([6]; 0.0425 mM): -22.5%
Average Larval Weight ([6]; 0.0425 mM): 12.57 10^-4 g
% Growth Inhibition ([6]; 0.085 mM): 28.5%
Average Larval Weight ([6]; 0.085 mM): 7.34 10^-4 g
% Growth Inhibition ([6]; 0.170 mM): 45.1%
Average Larval Weight ([6]; 0.170 mM): 5.63 10^-4 g
% Growth Inhibition ([6]; 0.340 mM): 69.3%
Average Larval Weight ([6]; 0.340 mM): 3.15 10^-4 g
% Growth Inhibition ([6]; 0.680 mM): 70.6%
Average Larval Weight ([6]; 0.680 mM): 3.02 10^-4 g
Growth Inhibition ([6]; first instar larvae, 0.17 mM): 76%
Growth Inhibition ([6]; first instar larvae, 0.40 mM): 64%
Mortality (class) ([7]; 0.17-0.68 mM): None (none/low, 10-20% mortality)
